Experimental data as given in the supplement of paper PMC10065799, “High-throughput profiling of sequence recognition by tyrosine kinases and SH2 domains using bacterial peptide display” (eLife, 2023).

How the values were obtained:
MERTK = MERTK (UniProt Q12866); assay: phosphorylation enrichment, bacterial display (enrichment ratio); higher = better substrate or ligand; peptides without Tyr show the background
Fer (mouse) = assay: as above
AncSZ = assay: as above
FGFR1 = FGFR1 (UniProt P11362); assay: as above
FGFR1, sequence (P11362 whole entry, looked up): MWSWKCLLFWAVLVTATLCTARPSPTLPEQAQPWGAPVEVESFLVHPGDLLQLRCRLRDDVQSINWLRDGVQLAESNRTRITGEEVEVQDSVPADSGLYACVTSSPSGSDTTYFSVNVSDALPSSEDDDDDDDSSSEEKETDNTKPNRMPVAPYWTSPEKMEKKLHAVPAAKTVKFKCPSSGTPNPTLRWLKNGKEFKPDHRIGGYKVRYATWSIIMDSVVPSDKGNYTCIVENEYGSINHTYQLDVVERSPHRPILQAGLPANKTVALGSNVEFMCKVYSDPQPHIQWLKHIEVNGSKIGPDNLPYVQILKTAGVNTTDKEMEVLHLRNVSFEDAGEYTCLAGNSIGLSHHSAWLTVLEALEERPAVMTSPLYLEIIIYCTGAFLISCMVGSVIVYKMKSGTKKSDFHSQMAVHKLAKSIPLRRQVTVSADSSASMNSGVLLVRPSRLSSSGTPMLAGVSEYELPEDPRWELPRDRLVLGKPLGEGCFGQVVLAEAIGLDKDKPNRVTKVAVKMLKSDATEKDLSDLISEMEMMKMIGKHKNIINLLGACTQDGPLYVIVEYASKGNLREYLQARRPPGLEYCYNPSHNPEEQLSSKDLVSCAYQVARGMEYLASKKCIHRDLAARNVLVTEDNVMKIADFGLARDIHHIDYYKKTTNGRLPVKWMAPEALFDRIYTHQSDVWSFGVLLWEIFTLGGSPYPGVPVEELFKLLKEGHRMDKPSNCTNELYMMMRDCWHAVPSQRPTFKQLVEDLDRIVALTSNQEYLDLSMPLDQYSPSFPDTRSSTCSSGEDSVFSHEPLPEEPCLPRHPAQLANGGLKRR

FGFR3 = FGFR3 (UniProt P22607); assay: as above
FGFR3, sequence (P22607 whole entry, looked up): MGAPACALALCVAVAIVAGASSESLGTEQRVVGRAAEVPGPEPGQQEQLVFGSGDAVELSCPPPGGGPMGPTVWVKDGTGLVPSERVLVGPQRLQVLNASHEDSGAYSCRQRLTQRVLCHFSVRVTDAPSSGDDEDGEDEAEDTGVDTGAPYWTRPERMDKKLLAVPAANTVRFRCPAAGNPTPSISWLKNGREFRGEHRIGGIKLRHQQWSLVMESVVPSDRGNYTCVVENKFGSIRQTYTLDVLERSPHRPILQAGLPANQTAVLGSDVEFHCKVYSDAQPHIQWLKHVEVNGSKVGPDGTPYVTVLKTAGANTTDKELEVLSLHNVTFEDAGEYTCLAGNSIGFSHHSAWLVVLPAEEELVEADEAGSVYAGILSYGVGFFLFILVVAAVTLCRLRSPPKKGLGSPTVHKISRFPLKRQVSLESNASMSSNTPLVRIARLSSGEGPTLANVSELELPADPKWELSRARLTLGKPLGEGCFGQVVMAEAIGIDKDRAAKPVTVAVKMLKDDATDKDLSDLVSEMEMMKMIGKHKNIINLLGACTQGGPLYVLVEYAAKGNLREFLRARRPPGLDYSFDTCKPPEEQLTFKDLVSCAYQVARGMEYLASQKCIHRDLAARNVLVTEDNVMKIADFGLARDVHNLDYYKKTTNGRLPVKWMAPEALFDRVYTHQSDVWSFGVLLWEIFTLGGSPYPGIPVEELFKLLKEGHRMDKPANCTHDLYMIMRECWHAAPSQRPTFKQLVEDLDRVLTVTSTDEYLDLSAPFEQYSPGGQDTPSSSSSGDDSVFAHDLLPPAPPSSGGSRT

EPHB1 = EPHB1 (UniProt P54762); assay: as above
c-Src = assay: as above
Fes = Fes (UniProt P07332); assay: as above
Fes, sequence (P07332 whole entry, looked up): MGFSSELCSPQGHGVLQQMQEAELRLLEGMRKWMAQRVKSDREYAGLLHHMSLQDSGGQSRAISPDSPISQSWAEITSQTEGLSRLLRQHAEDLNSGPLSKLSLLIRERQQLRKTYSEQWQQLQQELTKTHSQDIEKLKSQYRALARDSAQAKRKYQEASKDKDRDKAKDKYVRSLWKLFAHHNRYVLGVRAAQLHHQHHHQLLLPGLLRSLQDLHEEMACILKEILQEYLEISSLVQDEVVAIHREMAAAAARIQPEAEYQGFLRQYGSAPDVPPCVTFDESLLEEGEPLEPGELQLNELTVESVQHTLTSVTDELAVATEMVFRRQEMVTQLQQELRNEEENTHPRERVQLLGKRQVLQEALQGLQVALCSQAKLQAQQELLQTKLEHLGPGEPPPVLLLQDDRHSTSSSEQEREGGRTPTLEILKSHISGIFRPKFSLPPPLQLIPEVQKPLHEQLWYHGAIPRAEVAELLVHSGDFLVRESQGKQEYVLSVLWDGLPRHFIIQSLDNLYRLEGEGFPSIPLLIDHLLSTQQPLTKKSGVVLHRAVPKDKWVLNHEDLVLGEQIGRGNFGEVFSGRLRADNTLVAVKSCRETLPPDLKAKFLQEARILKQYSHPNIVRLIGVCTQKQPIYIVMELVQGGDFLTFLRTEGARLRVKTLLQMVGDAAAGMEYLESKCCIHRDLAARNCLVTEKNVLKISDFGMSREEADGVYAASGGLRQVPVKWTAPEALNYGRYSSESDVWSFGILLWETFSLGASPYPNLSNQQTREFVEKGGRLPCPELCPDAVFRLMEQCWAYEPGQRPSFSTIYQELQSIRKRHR

Fyn = Fyn (UniProt P06241); assay: as above
Fyn, sequence (P06241 whole entry, looked up): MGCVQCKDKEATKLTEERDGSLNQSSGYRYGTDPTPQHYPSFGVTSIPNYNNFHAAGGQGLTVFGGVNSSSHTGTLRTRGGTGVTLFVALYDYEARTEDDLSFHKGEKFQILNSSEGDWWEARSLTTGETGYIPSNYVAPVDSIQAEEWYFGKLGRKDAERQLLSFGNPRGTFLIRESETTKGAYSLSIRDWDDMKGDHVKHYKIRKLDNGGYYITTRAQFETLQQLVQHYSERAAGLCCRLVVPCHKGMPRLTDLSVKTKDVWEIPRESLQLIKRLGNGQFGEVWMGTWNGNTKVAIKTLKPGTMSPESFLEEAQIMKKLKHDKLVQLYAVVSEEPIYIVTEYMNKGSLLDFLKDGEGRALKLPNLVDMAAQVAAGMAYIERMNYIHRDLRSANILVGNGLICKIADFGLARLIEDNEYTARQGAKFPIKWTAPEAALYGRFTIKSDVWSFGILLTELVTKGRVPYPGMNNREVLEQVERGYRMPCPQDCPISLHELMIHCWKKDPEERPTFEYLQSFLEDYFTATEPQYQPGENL

Hck = Hck (UniProt P08631); assay: as above
c-Abl (mouse) = assay: as above
EPHB2 = EPHB2 (UniProt P29323); assay: as above
EPHB2, sequence (P29323 whole entry, looked up): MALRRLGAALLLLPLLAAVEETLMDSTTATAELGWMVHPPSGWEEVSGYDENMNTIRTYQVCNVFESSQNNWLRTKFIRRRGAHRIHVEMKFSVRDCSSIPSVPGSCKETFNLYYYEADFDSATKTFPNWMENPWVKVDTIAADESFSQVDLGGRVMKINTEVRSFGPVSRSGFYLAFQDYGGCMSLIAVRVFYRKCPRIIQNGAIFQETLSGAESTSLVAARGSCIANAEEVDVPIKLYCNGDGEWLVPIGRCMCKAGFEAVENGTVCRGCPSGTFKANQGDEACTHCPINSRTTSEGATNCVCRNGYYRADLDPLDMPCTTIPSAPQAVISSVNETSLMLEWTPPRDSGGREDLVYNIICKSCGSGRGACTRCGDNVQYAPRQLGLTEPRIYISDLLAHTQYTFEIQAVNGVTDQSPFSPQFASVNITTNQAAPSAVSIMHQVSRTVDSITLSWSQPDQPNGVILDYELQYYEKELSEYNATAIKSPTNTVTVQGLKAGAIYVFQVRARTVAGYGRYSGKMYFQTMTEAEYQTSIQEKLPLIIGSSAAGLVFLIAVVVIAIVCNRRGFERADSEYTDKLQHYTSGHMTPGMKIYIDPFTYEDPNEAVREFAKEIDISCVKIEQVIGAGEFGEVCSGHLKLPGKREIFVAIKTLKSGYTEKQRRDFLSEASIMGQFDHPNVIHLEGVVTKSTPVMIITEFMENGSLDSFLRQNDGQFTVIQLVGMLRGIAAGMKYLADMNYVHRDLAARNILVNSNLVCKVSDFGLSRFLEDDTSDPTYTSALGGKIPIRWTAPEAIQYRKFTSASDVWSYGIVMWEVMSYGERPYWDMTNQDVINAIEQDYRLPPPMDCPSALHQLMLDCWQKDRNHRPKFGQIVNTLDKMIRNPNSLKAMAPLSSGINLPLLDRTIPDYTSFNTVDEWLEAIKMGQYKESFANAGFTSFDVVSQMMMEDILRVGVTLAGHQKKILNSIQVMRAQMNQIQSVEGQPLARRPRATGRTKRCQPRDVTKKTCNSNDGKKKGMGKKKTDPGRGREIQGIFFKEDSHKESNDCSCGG

Jak2 = Jak2 (UniProt O60674); assay: as above
SHP2-C SH2 = assay: SH2 binding enrichment of the phosphorylated peptide, bacterial display (enrichment ratio); higher = better substrate or ligand; peptides without Tyr show the background
Grb2 SH2 = Grb2 SH2 (UniProt P62993); assay: as above
c-Src SH2 = assay: as above
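Wherever SH2 binding enrichment of the phosphorylated peptide, bacterial display is given: peptide library displayed on the E. coli surface as eCPX fusions, selected cells deep-sequenced, score is each peptide's frequency after selection divided by its frequency in the input.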
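Wherever phosphorylation enrichment, bacterial display is given: 11-residue human phosphosite peptides and single-mutation variants displayed on the E. coli surface, counted by deep sequencing, each peptide's frequency after selection divided by its frequency in the unselected input library; frequency after pTyr selection over input frequency; kinase dosed for 20-30% of maximal phosphorylation in three min.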

MERTK, sequence (Q12866 whole entry, looked up): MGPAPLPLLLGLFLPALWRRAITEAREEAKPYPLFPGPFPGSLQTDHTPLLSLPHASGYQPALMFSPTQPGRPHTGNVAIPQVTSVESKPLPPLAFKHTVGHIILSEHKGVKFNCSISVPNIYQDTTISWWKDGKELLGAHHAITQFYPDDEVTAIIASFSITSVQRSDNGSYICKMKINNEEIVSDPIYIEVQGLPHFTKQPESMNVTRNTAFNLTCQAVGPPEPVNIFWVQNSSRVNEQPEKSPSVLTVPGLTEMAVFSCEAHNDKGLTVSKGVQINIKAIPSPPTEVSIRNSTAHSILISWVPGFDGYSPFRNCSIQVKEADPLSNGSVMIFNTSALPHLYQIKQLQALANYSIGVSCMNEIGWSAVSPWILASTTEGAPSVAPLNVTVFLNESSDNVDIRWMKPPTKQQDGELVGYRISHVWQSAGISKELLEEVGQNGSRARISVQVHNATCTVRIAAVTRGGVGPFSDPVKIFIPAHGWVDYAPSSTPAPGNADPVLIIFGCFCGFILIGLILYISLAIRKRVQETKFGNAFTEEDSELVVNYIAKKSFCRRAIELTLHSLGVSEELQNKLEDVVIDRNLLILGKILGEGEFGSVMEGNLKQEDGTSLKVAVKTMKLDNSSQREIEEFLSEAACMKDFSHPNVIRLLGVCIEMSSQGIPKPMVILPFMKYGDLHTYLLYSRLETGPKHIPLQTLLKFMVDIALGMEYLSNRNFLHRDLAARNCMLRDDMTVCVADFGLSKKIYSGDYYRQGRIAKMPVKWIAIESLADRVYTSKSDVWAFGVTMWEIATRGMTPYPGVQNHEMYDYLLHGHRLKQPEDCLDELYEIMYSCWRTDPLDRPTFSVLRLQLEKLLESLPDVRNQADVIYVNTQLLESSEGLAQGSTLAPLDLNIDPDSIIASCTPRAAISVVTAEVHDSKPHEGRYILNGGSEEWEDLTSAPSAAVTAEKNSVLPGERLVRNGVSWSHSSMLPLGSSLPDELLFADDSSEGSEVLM

SH2 binding enrichment (SHP2-C SH2) | SH2 binding enrichment (Grb2 SH2) | SH2 binding enrichment (c-Src SH2) | Sequence | phosphorylation enrichment (MERTK) | phosphorylation enrichment (Fer (mouse)) | phosphorylation enrichment (AncSZ) | phosphorylation enrichment (FGFR1) | phosphorylation enrichment (FGFR3) | phosphorylation enrichment (EPHB1) | phosphorylation enrichment (c-Src) | phosphorylation enrichment (Fes) | phosphorylation enrichment (Fyn) | phosphorylation enrichment (Hck) | phosphorylation enrichment (c-Abl (mouse)) | phosphorylation enrichment (EPHB2) | phosphorylation enrichment (Jak2)
0.567 | 0.956 | 0.536 | FEREQYADRAR [RBM4_Y355_YF] | 0.331 | 0.394 | 0.626 | 0.426 | 0.587 | 0.414 | 0.396 | 0.727 | 0.484 | 0.426 | 0.464 | 0.446 | 0.515
0.574 | 0.713 | 0.592 | ENRKYYKDLKE [PURA_Y156_M157K] | 0.34 | 0.318 | 0.55 | 0.359 | 0.457 | 0.34 | 0.352 | 0.766 | 0.359 | 0.295 | 0.549 | 0.298 | 0.772
0.604 | 0.801 | 22.5 | VVHGSYDEIEG [SEC24A_Y263_S261G] | 0.431 | 0.594 | 0.914 | 0.395 | 0.591 | 0.424 | 0.536 | 0.9 | 0.395 | 0.469 | 1.07 | 0.387 | 0.887
0.805 | 0.814 | 0.391 | TVEDHYFEGGI [TKT_Y563_YF] | 0.444 | 0.559 | 1.1 | 0.762 | 1.03 | 0.726 | 0.472 | 1.05 | 0.519 | 0.497 | 0.798 | 0.625 | 0.776
0.684 | 0.631 | 0.437 | RNFGTYTAGLS [RHBDD1_Y264_D262G_YF] | 0.302 | 0.798 | 0.702 | 0.483 | 1.07 | 0.377 | 0.517 | 0.495 | 0.441 | 0.657 | 0.445 | 0.477 | 0.315
0.729 | 0.828 | 5.87 | LIEQAYDNPHE [PRPF8_Y871] | 0.43 | 0.602 | 1.12 | 0.566 | 0.695 | 0.638 | 0.472 | 1.16 | 0.645 | 0.86 | 0.767 | 0.824 | 0.811

More lines, now with the values behind:

Sequence | SH2 binding enrichment (SHP2-C SH2) | SH2 binding enrichment (Grb2 SH2) | SH2 binding enrichment (c-Src SH2) | phosphorylation enrichment (MERTK) | phosphorylation enrichment (Fer (mouse)) | phosphorylation enrichment (AncSZ) | phosphorylation enrichment (FGFR1) | phosphorylation enrichment (FGFR3) | phosphorylation enrichment (EPHB1) | phosphorylation enrichment (c-Src) | phosphorylation enrichment (Fes) | phosphorylation enrichment (Fyn) | phosphorylation enrichment (Hck) | phosphorylation enrichment (c-Abl (mouse)) | phosphorylation enrichment (EPHB2) | phosphorylation enrichment (Jak2)
GHLFAYDWIRI [BEST1_Y227_S231R_YF] | 1.43 | 1.66 | 1.56 | 4.78 | 12.5 | 1 | 1.68 | 1.22 | 0.787 | 0.941 | 1.51 | 0.673 | 1.6 | 0.674 | 0.641 | 0.867
FETDFYQKGGK [INSR_Y1190_R1191Q_YF] | 0.62 | 0.797 | 0.564 | 0.421 | 0.47 | 0.633 | 0.411 | 0.503 | 0.834 | 0.427 | 0.88 | 0.519 | 0.472 | 0.523 | 0.355 | 0.526
PVDTFYDSTRG [DYNC2H1_Y2231_M2227V_YF] | 0.652 | 0.661 | 0.503 | 0.404 | 0.917 | 0.973 | 0.423 | 0.722 | 0.638 | 0.671 | 0.95 | 0.671 | 0.888 | 1.04 | 0.551 | 0.939
GQKVAYGGTED [ALDH3A1_Y305_G309E] | 0.549 | 0.788 | 0.471 | 0.417 | 0.344 | 0.747 | 0.412 | 0.63 | 0.424 | 0.412 | 0.939 | 0.438 | 0.402 | 0.577 | 0.471 | 0.791
DGYIDYAEFAK [MCFD2_Y138] | 0.47 | 0.733 | 0.661 | 0.455 | 0.407 | 1.13 | 1.31 | 1 | 0.639 | 0.912 | 1 | 0.635 | 0.657 | 0.674 | 0.579 | 0.917
RSDEDYLYREE [POR_Y573] | 0.748 | 0.738 | 0.435 | 0.52 | 0.559 | 1.32 | 0.784 | 1.16 | 0.756 | 0.56 | 1.54 | 0.761 | 0.827 | 0.813 | 0.854 | 1.48
PTTKTYFPHFF [HBA1_Y43_D48Y_YF] | 1.01 | 1.23 | 0.683 | 0.607 | 0.864 | 0.681 | 0.824 | 0.696 | 0.547 | 0.471 | 0.584 | 0.723 | 0.672 | 0.453 | 0.716 | 0.569
DRLASYLDKLR [KRT12_Y139_V143L] | 0.582 | 0.876 | 0.545 | 0.45 | 0.479 | 0.921 | 0.458 | 0.597 | 0.494 | 0.498 | 0.894 | 0.459 | 0.472 | 0.868 | 0.567 | 0.713
LSCLAYSGKDA [FXN_Y205_S202C] | 0.626 | 0.719 | 0.537 | 0.558 | 0.525 | 1.23 | 0.495 | 0.976 | 0.844 | 0.665 | 1.44 | 0.52 | 0.527 | 1.15 | 0.643 | 1.24
HYEDGYPGGSD [CTNND1_Y221] | 0.786 | 0.915 | 0.924 | 0.852 | 0.908 | 1.75 | 0.819 | 0.945 | 0.796 | 1.13 | 1.28 | 0.799 | 0.629 | 1.12 | 0.762 | 1.44
